{"source": "the RNAGym collection of RNA variant scans (doi:10.7554/elife.80360)", "parents": {"B1": {"name": "HDV Ribozyme (parent)", "chain": "GGCCGGCAUGGUCCCAGCCUCCUCGCUGGCGCCGGCUGGGCAACAUUCCGAGGGGACCGUCCCCUCGGUAAUGGCGAAUGGGACCCA"}}}
{"variants_of": "B1", "test": "self-cleavage, relative activity (ratio to wild type); higher = more cleavage; co-transcriptional"}
{"variant": "G34U C86U", "self-cleavage": 0.187}
{"variant": "C15G G25C", "self-cleavage": 0}
{"variant": "C3G A87C", "self-cleavage": 0.861}
{"variant": "C21A C24A", "self-cleavage": 0}
{"variant": "G29U G55U", "self-cleavage": 0.0944}
{"variant": "G53A U69A", "self-cleavage": 1.03}
{"variant": "C36G C58U", "self-cleavage": 0.128}
{"variant": "C64U G81U", "self-cleavage": 0.313}
{"variant": "G35A G39U", "self-cleavage": 0.128}
{"variant": "C19U G76U", "self-cleavage": 0.288}
{"variant": "C62U U72G", "self-cleavage": 0.649}
{"variant": "A8G G55U", "self-cleavage": 0.804}
{"variant": "G31U C62U", "self-cleavage": 0.404}
{"variant": "C21G C86G", "self-cleavage": 0.0369}
{"variant": "G31A C36A", "self-cleavage": 0.117}
{"variant": "C14G U23G", "self-cleavage": 0.453}
{"variant": "U20A A43G", "self-cleavage": 0.0573}
{"variant": "A42G A56U", "self-cleavage": 0.698}
{"variant": "U12A G38U", "self-cleavage": 0.0277}
{"variant": "G68C G82A", "self-cleavage": 0.237}
{"variant": "G39U A51C", "self-cleavage": 0.849}
{"variant": "G5C C86A", "self-cleavage": 0.166}
{"variant": "C4U A56C", "self-cleavage": 0.522}
{"variant": "G5C C26A", "self-cleavage": 0.508}
{"variant": "U37G A78C", "self-cleavage": 0.196}
{"variant": "C21A A43C", "self-cleavage": 0.116}
{"variant": "U12C C85A", "self-cleavage": 0.185}
{"variant": "G10A C22A", "self-cleavage": 0.0528}
{"variant": "U37C G40C", "self-cleavage": 0.262}
{"variant": "U23C G82A", "self-cleavage": 0.314}
{"variant": "C48G G53C", "self-cleavage": 0.776}
{"variant": "C7U C30G", "self-cleavage": 0}
{"variant": "C24U A78G", "self-cleavage": 0.397}
{"variant": "U23C C26A", "self-cleavage": 1.11}
{"variant": "G28A U65A", "self-cleavage": 0.0755}
{"variant": "A42C U60C", "self-cleavage": 0.35}
{"variant": "G31U C33U", "self-cleavage": 0.125}
{"variant": "A70C U79A", "self-cleavage": 0.72}
{"variant": "G6A G52U", "self-cleavage": 0.694}
{"variant": "G80U C86U", "self-cleavage": 0.281}
{"variant": "C58G A87G", "self-cleavage": 0.874}
{"variant": "U27C C33G", "self-cleavage": 0.237}
{"variant": "G5A A42G", "self-cleavage": 0}
{"variant": "G6U C86U", "self-cleavage": 0.633}
{"variant": "U12C G38C", "self-cleavage": 0.0475}
{"variant": "C14G G34U", "self-cleavage": 0.0594}
{"variant": "G11C G59U", "self-cleavage": 0.35}
{"variant": "G11A G17U", "self-cleavage": 0.251}
{"variant": "G29C A71C", "self-cleavage": 0.0536}
{"variant": "C75U A83C", "self-cleavage": 0.128}
{"variant": "U47A G50A", "self-cleavage": 0.876}
{"variant": "G39U A78U", "self-cleavage": 0.157}
{"variant": "U65A G76A", "self-cleavage": 0.976}
{"variant": "C13G G53A", "self-cleavage": 0.163}
{"variant": "G25C U69A", "self-cleavage": 0.166}
{"variant": "G35A C64A", "self-cleavage": 0.379}
{"variant": "U9G G39U", "self-cleavage": 0.807}
{"variant": "C19A C61A", "self-cleavage": 0.12}
{"variant": "G5U A42U", "self-cleavage": 0.208}
{"variant": "C62G G73U", "self-cleavage": 0.193}
{"variant": "C4A C41G", "self-cleavage": 0.0519}
{"variant": "U12A U69A", "self-cleavage": 0.346}
{"variant": "C7G A87G", "self-cleavage": 0.381}
{"variant": "C18G U37A", "self-cleavage": 0.111}
{"variant": "G31U C85A", "self-cleavage": 0.288}
{"variant": "G68U A71C", "self-cleavage": 0.973}
{"variant": "C36A G50A", "self-cleavage": 0.151}
{"variant": "C19G G80C", "self-cleavage": 0.0773}
{"variant": "G5U A83U", "self-cleavage": 0}
{"variant": "C21U G40A", "self-cleavage": 0.538}
{"variant": "A16C G82C", "self-cleavage": 0.0755}
{"variant": "G29U G68C", "self-cleavage": 0.106}
{"variant": "C19G C21A", "self-cleavage": 0.208}
{"variant": "C13A U27A", "self-cleavage": 0.831}
{"variant": "G25C C61G", "self-cleavage": 0.175}
{"variant": "U79C G81U", "self-cleavage": 0.225}
{"variant": "C36G C84A", "self-cleavage": 0.0773}
{"variant": "C41U G50U", "self-cleavage": 0.933}
{"variant": "C7G G11U", "self-cleavage": 0.104}
{"variant": "A43G U79C", "self-cleavage": 0.0941}
{"variant": "G10C G68A", "self-cleavage": 0.706}
{"variant": "A51G U69C", "self-cleavage": 0.9}
{"variant": "A16C C61G", "self-cleavage": 0.7}
{"variant": "C3G U12G", "self-cleavage": 0.32}
{"variant": "C14U C84G", "self-cleavage": 0.914}
{"variant": "U9G C18A", "self-cleavage": 0.0923}
{"variant": "C32G U37A", "self-cleavage": 0.293}
{"variant": "U37C G74C", "self-cleavage": 0.193}
{"variant": "G29C G34U", "self-cleavage": 0.181}
{"variant": "C66G A77U", "self-cleavage": 0.597}
{"variant": "C15U G40U", "self-cleavage": 0.791}
{"variant": "C30A G39C", "self-cleavage": 0.157}
{"variant": "G10C U65G", "self-cleavage": 0.997}
{"variant": "U37C C48A", "self-cleavage": 1.13}
{"variant": "C3U U9C", "self-cleavage": 0.95}
{"variant": "C4A U60G", "self-cleavage": 0.0449}
{"variant": "C41G G55A", "self-cleavage": 0.911}
{"variant": "C24G G31U", "self-cleavage": 0.0604}
{"variant": "G52A A78C", "self-cleavage": 0.347}
{"variant": "C33G C86A", "self-cleavage": 0.146}
{"variant": "G5A C62A", "self-cleavage": 0}
{"variant": "G11U C63A", "self-cleavage": 0.228}
{"variant": "G2A G29U", "self-cleavage": 0.0205}
{"variant": "U79G C84A", "self-cleavage": 0.38}
{"variant": "G29U A71C", "self-cleavage": 0.0302}
{"variant": "C48G U65A", "self-cleavage": 0.511}
{"variant": "U12C C66U", "self-cleavage": 0.655}
{"variant": "C18U G73A", "self-cleavage": 0.161}
{"variant": "G17C C36G", "self-cleavage": 0.122}
{"variant": "G50A G68U", "self-cleavage": 0.767}
{"variant": "C4G G81U", "self-cleavage": 0.0554}
{"variant": "C33U A77G", "self-cleavage": 0.554}
{"variant": "A45U C48A", "self-cleavage": 0.7}
{"variant": "C7A A16G", "self-cleavage": 0.249}
{"variant": "C18G A56U", "self-cleavage": 0.138}
{"variant": "C75A G80U", "self-cleavage": 0.118}
{"variant": "U47C A56U", "self-cleavage": 0.942}
{"variant": "G11C U12A", "self-cleavage": 0}
{"variant": "C62G A70C", "self-cleavage": 0.554}
{"variant": "G53U A87G", "self-cleavage": 1.03}
{"variant": "G25A C85G", "self-cleavage": 0.237}
{"variant": "G55A A83U", "self-cleavage": 0.415}
{"variant": "C26A G76C", "self-cleavage": 1.08}
{"variant": "G29U U37A", "self-cleavage": 0.0898}
{"variant": "A71C U79G", "self-cleavage": 0.437}
{"variant": "U9A G74C", "self-cleavage": 0.0573}
{"variant": "C3G G25C", "self-cleavage": 0.0292}
{"variant": "G28U U60C", "self-cleavage": 0.0755}
{"variant": "C21A U72C", "self-cleavage": 0.101}
{"variant": "G53C C86G", "self-cleavage": 0.903}
{"variant": "C41A C86A", "self-cleavage": 0.815}
{"variant": "G38U G53C", "self-cleavage": 0.434}
{"variant": "A43C U69G", "self-cleavage": 0.68}
{"variant": "C30A G54A", "self-cleavage": 0.535}
{"variant": "U20A C48A", "self-cleavage": 0.0573}
{"variant": "U69A G76A", "self-cleavage": 0.727}
{"variant": "U37G G80U", "self-cleavage": 0.203}
{"variant": "U60G C64A", "self-cleavage": 1.07}
{"variant": "G5U G31C", "self-cleavage": 0.0723}
{"variant": "C3A G40A", "self-cleavage": 0.412}
{"variant": "A45G G76A", "self-cleavage": 0.959}
{"variant": "C4U G82U", "self-cleavage": 0.119}
{"variant": "G29A C84A", "self-cleavage": 0.245}
{"variant": "A8U C44G", "self-cleavage": 0.731}
{"variant": "G5C G55U", "self-cleavage": 0.17}
{"variant": "C30G G35C", "self-cleavage": 0.198}
{"variant": "C41G U60C", "self-cleavage": 0.997}
{"variant": "C30U U69C", "self-cleavage": 0.796}
{"variant": "C14A", "self-cleavage": 0.761}
{"variant": "G38U G73A", "self-cleavage": 0.149}
{"variant": "U9A U60A", "self-cleavage": 0.923}
{"variant": "G17A C57A", "self-cleavage": 0.965}
{"variant": "C3G C19G", "self-cleavage": 0.0326}
{"variant": "A16G G59C", "self-cleavage": 0.929}
{"variant": "C48U G68A", "self-cleavage": 0.885}
{"variant": "G28A G55C", "self-cleavage": 0.0252}
{"variant": "G2U G40A", "self-cleavage": 0.0369}
{"variant": "C3U G50A", "self-cleavage": 0.682}
{"variant": "U9G A83G", "self-cleavage": 0.525}
{"variant": "C26U U37A", "self-cleavage": 0.462}
{"variant": "C18A A71C", "self-cleavage": 0.0504}
{"variant": "G6C G80C", "self-cleavage": 0.172}
{"variant": "C64G", "self-cleavage": 0.954}
{"variant": "U20C A45G", "self-cleavage": 0}
{"variant": "C64A U72A", "self-cleavage": 0.491}
{"variant": "G34A G35U", "self-cleavage": 0.113}
{"variant": "A45G", "self-cleavage": 0.918}
